Source: patent publication US20200199225A1 (AVA LIFESCIENCE, published 2020)

Biological target: T1, CLL subset 2 typical BCR (HC/LC typical for the CLL subset 2) expressed on the surface of TKO cells
T1 construct: also called CLL-Subset2 BCR; BCR of Interest
Experiment: FACS on TKO cells expressing the CLL receptor
Description: Monoclonal antibodies were produced using the standard procedure in mice and the subsequent generation of hybridoma cells. The screening for positive clones was not performed by ELISA as usual. Since the target structure is a membrane-bound receptor, it is of central importance to validate the binding of the potential antibodies in a cellular system, i.e. while largely preserving the cell physiological states native to this cell type. First, groups of pooled supernatants were examined for binding events using FACS analysis. For this purpose different CLL-Subset 2 BCR variants were expressed on the surface of a cell line (TKO), which cannot express BCR itself. […] Subsequently, the supernatants of the individual hybridoma clones were examined in more detail with regard to their binding in order to identify highly specific clones with a high affinity.
For the screening procedure, different vectors were used in the previous transformation for the following heavy chain (HC) and light chain (LC) combinations of the corresponding CLL-BCRs, these combinations being used on the surface of the BCR reconstitution system: [0074] Control (transformation vector without BCR) (see FIG. 1 A) [0075] Vector with HC/LC typical for the CLL subset 2 (see FIG. 1 B) [0076] Vector with a non-CLL subset 2 HC/a LC typical for the CLL subset 2 (without target motif; epitope) (see FIG. 1 C) [0077] […]

T1 sequence (heavy, as listed by the source, chain 1 of 2): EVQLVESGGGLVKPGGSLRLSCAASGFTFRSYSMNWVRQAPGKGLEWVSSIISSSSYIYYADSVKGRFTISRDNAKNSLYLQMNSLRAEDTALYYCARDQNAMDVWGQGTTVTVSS
T1 sequence (light, as listed by the source, chain 2 of 2): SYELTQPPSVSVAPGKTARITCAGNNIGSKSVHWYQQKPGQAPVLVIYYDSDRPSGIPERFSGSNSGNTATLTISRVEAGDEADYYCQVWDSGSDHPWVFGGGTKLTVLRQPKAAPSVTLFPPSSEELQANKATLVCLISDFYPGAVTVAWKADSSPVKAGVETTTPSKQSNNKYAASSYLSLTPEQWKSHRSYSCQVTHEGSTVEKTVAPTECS

binding result: binds
B1: AVA-mAb01 (antibody, V domains shown)
VH: QVQLQQSGPGLVQPSQSLSITCTVSGFSLTSYGIHWVRQSPGKGLEWLGVIWRGGGTDSNAAFMSRLSITKDNSKSQVFFKMNSLQADDTAIYYCARSRYDEEESMNYWGQGTSVTVSS
VL: QIVLTQSPASLSASVGETVTITCRASGNIHSYLAWYQQKQGKSPQLLVYNAKTLADGVPSRFSGSGSGTQYSLKINSLQPEDFGSYYCQHFWNTPPTFGAGTKLELK
notes: Murine monoclonal antibody from a hybridoma, tested as hybridoma supernatant and detected with a fluorescence-labeled anti-mouse-IgG antibody; the constant regions are not; also called specific monoclonal antibody against Subset-2; the selected antibody
